One data set deals with XPA M32-4 (UniProt P23025 1-273, R30E;K31E;R32E;R34E). Briefly: MST.
Another data set addresses XPA M32-4/70-2 (UniProt P23025 1-273, R30E;K31E;R32E;R34E;E106K;F112A). Briefly: MST.

As usually defined, the Kd is the free concentration of one partner at which half of the binding sites on the other are occupied at equilibrium, for simple one-to-one binding.

XPA M32-4/70-2, sequence (P23025 whole entry R30E/K31E/R32E/R34E/E106K/F112A): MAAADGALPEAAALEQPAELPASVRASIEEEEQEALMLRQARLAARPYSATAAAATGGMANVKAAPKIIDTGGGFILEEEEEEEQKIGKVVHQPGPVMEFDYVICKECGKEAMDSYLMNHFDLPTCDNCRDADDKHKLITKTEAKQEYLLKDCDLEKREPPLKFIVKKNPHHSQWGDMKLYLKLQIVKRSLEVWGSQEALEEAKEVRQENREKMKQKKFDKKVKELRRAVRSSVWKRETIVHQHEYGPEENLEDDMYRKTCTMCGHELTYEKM
XPA M32-4, sequence (P23025 whole entry R30E/K31E/R32E/R34E): as the sequence (P23025 whole entry R30E/K31E/R32E/R34E/E106K/F112A) above, with K106E, A112F counted along it

For the molecule TTTTGCGGCCGCTTTTGCGGCCGC (structured_DNA) [4-nt hairpin NER junction mimic], the equilibrium dissociation constant (Kd) with XPA M32-4 worked out at 8.4 ± 2.3 µM; with XPA M32-4/70-2 it was 10 ± 3 µM.

(Values after article PMC9407234.)
